These are literature values, as cited in paper PMC2846211.

This series deals with DNA polymerase gamma accessory subunit (Homo sapiens) (UniProt Q9UHN1).
Chain of UniProt Q9UHN1 (Q9UHN1 2-485): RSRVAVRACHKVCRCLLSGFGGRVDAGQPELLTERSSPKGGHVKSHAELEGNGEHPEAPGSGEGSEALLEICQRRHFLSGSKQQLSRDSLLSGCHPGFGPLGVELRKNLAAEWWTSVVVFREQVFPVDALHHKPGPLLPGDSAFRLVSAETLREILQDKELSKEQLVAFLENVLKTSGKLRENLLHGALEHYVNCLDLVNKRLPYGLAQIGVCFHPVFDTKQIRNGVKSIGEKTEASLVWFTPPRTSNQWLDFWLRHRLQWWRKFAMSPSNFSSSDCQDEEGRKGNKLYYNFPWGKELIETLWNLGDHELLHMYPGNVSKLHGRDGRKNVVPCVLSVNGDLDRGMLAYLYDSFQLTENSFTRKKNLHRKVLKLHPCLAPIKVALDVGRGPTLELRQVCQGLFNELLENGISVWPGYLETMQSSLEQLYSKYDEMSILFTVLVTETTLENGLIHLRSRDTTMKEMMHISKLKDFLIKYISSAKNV

The Kd is the constant that tells how readily two partners part at equilibrium. As for “DNA polymerase gamma catalytic subunit (from UniProt P54098)”, the dissociation constant (Kd) was 35 nM.
